# B1: unnamed (protein)
# chain: VEIHDLHFYNRYNHTVAATIYLPENLNNSPAVIFCGGWLSSREMYSWLPEELAKRGYVVLAIDPSGNGDSYGKLPSFKIFGVRIFSVIDGPYNYINGVWSSDIYDAVTFLTTNYRVSKNVALIGHSMGGFAVTDEALKDGRIKTVIALSDADIYAIKNLKIPVMVITGDFDLIINDNLVAIPGYNAANPPKELIVIKFGTHNGFTNLIWPMPPWNHNVTLYYLSSWLDCFLREDRESCKTLEKPHKYLSTLSESKCNLDGKEKVIKRATGRRKTFTAFLLIFLFLAVLILYLRSKEG
# B2: unnamed (protein)
# chain: QNSANVQNEISYDVFDYAQHPMGTIWGDPLPDAPALAARGEYMVGVQTLHLSNPNQTDVINTITSKSTVIYDRPLTVEVWYPATLKAGQVQVTVYCDFLGRYDKPGTLVPYTFLGRATRDAVPDTADGPYPLIIISHGYPGSRHLLFYLGENLASKGYVVVSIDHTDSTYKDVGHFASTLVNRSLDQKFVIREILKMPIWKDLCNPNEVGIIGYSMGGYGALRTLGAGLEDSNTIKGFLGEFASMLIAKPSDEGDPLVKAAVLFAPWGGSFGTGPTGLWDKASLAKITVPTLWIAGSQDDIAGYEGIVNLFNSSVNSRRYLLTYDNALHNVAPHPAPSIATEFGDYYRFADPVWDMWRIDSINEHFVTAFFDLYLKGDESAGSYLDMKVENSNEGVYSDQAESSTYWPGFQPRTALGLKFR
# B3: unnamed (protein)
# chain: MEKPVVFENEGQQIVGMLHAPDGAEGLSPAVVMFHGFTGTKVEPHRLFVKTARRLAEEGFYVLRFDFRGSGDSEGEFREMTLEGEISDAKASLDFILSQPGVDRGRIGVIGLSMGGGVAACLAGRDERVRAVALWAAVSEDPPDLFQELIKTFEERPDKSVDYVDMGGNLVGKGFFEDLRNVKPLQEISGFEGPVLIVHGDNDQTVSVEHAYRFYERLKGKHPLTALHIIRGADHTFNSHEWEREVIEVTVDFMKRA
# B4: unnamed (protein)
# chain: MMKDIAITFREGTIAARIYLPPPVHRAGEPHPGIIILHGYLAQQIQFDDLPRRLARKGYVAITFDMPGHGRSSGKRGYIEKDLQIDAATTVLDHLISLPNVDPKRILVIGHSLGGAMGTYLCARDPRPTAFVAIAPAGSLKRIVPLPARMLFGIPYIIHRIKKRMTGNSLYFHSIVTEHIVWADKRKVKFELERELLQHRQPVDNYRTIFLIDPRIPARKVTIPTIMFLASRDRVVPNRISRELFDNIASDDKTLLTIENSGHSIMSDWKKEDFWKMLVPWLETHIPP
# B5: unnamed (protein)
# chain: MSQYDPFLRGPFPAGVKTYEFEDTSRDRKLPIECWYPATSAYKGKDLDKETQDQFQLMEGFPKARQNAVRDAEIVDDSFPLIIFSHGFAGHRRQTTHFCTHLAGHGYIVASIDHIGSTLPEIMQMVMKVRKEGKLPDIEKFMEDVANDRPVDATFTIDTILAGELGPGIDPDRIGITGHSFGGWTTLVTTKSDTRIKAALPLAPGGGKSPLYGKDNPLTKMLTLDWERTVPTLYLTAEFDTLLPLDGMKDMFDRTPEPKGMVVLLNADHFHFCDGVEVVHDFFRQMGGFVGGMDPGGESEPAPMKKAKPSSELCPGKDAYTFIQGIGLAHMDAHLKGNSDAIELLKGDIAALLADRGVKVEVMQG
# B6: unnamed (protein)
# chain: VGTISFDLVDKERLELYGDKIGEERKFKAQMWYPSDDVTEGERAPWIEDGVKVSRMIPKDIGLPGFLIDYSSLIKSNSYKGVPISEKEEKYPIVIISHGWTGYRNIHTDIGELLASHGYIAISIDHTYGSLATVFDNGEVIEVDYGALPNRNETEDFLDYANALVTTYAYDSRFVLDYLEELDDSELIDGRLDLDRIGTLGHSTGGGGVVKIAIEDDRIKAIFGFDPWVEPIEDELLKIGLDVPSLFIRSEQWEEGYNNGYLTTLINHSVIKPMTYQMNGVNHLDFTMLYMYRPILQAFGFAGELDSQVSSKIQLEYVLKFFETYLKDNETNLNDIEKIYDSVIPVNY
# B7: unnamed (protein)
# chain: VEPLADPAKPGPYPVGVTTMLLVDHSRTDNALAGGPRSLMTEIWYPATDDTRGLPKNRLLDFFNRNTDPGFTVLLKMAFGIDLIQADKDFRNDAVRDARVRDGRFPLVLFSHGNGGIRMQNAYWCEHMASHGYIVMAPDHTGNCAVTFIDGRIFPFNDSEEGREQSRQDRPKDISFLIDAMERMNKGADSRFMGKVDLDHIGVAGHSFGGFTSTWVADAEPRVDAIVPMAGAGAERVNYTCPVMVLVATEDDTLGPERMADLRRYYDESKGPRYLVEFLNAGHFSFTEMYQLKPDFGDGCGTGTRITNGEPLTYIAMDVAFPLIKGYTTAFFGKYLKGLDGYDAYLAANHNPNELVVKSSIPETPQ
# B8: unnamed (protein)
# chain: CNDGSGGLEKTTELEPEDIYPLGDYYDPGKTGPYEVGVKTILLADNSRRTMLGHTKRILLTEVWYPILAPGDKINTVGDMIGQLPEWTPQILESFYGENWEDLLNIQTSAWRDAKTFLPDHPFPVIFFSHGLTALRFQNYTLCEHLASHGFLVIAPDHFDNNVFSNIPGHFTWFNPISTVASEFQRPRDIAFLVKHLQTRQSQTATFFGSYADPGRLGITGHSYGGMTSYAAGEQVAEIDAIAPLNPVILVPTTKFFTKPLLLLVGENDNLASSMFNSCEVAKRNYQTHKGNKAFLFLKNSGHYSATDACMLLPPGFINDDITGCGGAMLNPDIANEIVAAYQVAFFSITLKQDARYQDYLNKNNYPDNLDYEVSWK
# Substrate: PET
# Experiment: Proxy for plastic degradation [HPLC-UV] (mmol)
# Settings: pH 8
Protein,Proxy for plastic degradation (30 °C),Proxy for plastic degradation (60 °C)
B1,0,0
B2,0,0
B3,0,0
B4,0,0
B5,0,0
B6,0,0
B7,0,0
B8,0,0
